Target: Anasazi bean lectin (lectin from seeds of Phaseolus vulgaris cv. Anasazi beans) (Phaseolus vulgaris)
Assay: SEC; FPLC-gel filtration on Superdex 200 HR 10/30 calibrated with molecular-mass standards, 20 mM Tris-HCl buffer (pH 7.3); 60 kDa peak set against the 30 kDa band in SDS-PAGE

“Anasazi bean lectin (lectin from seeds of Phaseolus vulgaris cv. Anasazi beans) (natural protein)” was tested, and the stoichiometry N was 2.
